Results from patent publication US12173330B2, “Method for producing hydroxy-L-pipecolic acid” (API CORPORATION, priority 2015, dated 2024).

What was measured:
[1] = substrate: O=C(O)[C@@H]1CCCCN1; assay: purified protein, by the assay type; conditions: other: substrate: L-pipecolic acid, 20 mmol/L 2-oxoglutaric acid, 30° C.
[2] = substrate: O=C(O)[C@@H]1CCCN1; assay: purified protein, by the assay type; conditions: other: substrate: L-proline, 20 mmol/L 2-oxoglutaric acid, 30° C.

| Protein | Km [1] [µM] | Vmax [1] [U/mg-protein] | Km [2] [µM] | Vmax [2] [U/mg-protein] |
| --- | --- | --- | --- | --- |
| Xenorhabdus doucetiae FRM16 L-proline cis-4-hydroxylase XdPH, SEQ ID NO: 8 (Xenorhabdus doucetiae) (protein) MMSAKLLASIELNQEQIEHDLNIVGSEILDVAYSEYACGNWGTITLWNHSGDAGDQTSREYVGQARPTELGQQLDCINQLIRNNFNISLIKSVRIFRSYNGGAIYPHIDYLEFNQGFKRVHLVLKSDRSCLNSEENTVYHMLPGEVWFVDGHSAHSAMSLSRVGKYSLVLDFDSGAKFEDLYSESHTLCVDNLEPDIIHDRQPLPTSLRDSLAHIAEHADEFNIQSILFLATRFHFSYAVSIREYFQLLDECFSRNPYKSVRERYEALKDILVRSGYTSHNVNHFNSLSGVTIG | 300 | 1.14 | 310 | – |
| Catenulispora acidiphila NBRC102108 L-proline cis-4-hydroxylase CaPH, SEQ ID NO: 6 (Catenulispora acidiphila DSM 44928) (protein) MRTQYVAALELDEGRLAKDLETSASFNYSEAYSNYLIGGPWKSAMLYSAGGDAGDGLLTDYDYRQSSDFTDYGRQMPYLQELISTSVDLSRLTFVRLARFAKSVIVPHRDFLELEEIPEDKRSAHRLHIPLATHEECFFSEDNVVYRMRAGELWYFDASRIHSVVSFAEEPRIHLIFDFADRPGAGSLVTVPGEPEGAGVPAASAVDRPQLSDAERAALARLADVLTMDTFSEIFSVLVKKHFRRDGGEHFVWDTLTALARACPDPAVLPHTQELRRYFTLERPSGSGQA | – | – | 8870 | 0.02 |
| Sinorhizobium meliloti 1021 L-proline cis-4-hydroxylase SmPH, SEQ ID NO: 10 (Sinorhizobium meliloti 1021) (protein) MSTHFLGKVKFDEARLAEDLSTLEVAEFSSAYSDFACGKWEACVLRNRTGMQEEDIVVSHNAPALATPLSKSLPYLNELVETHFDCSAVRYTRIVRVSENACIIPHSDYLELDETFTRLHLVLDTNSGCANTEEDKIFHMGLGEIWFLDAMLPHSAACFSKTPRLHLMIDFEATAFPESFLRNVEQPVTTRDMVDPRKELTDEVIEGILGFSIIISEANYREIVSILAKLHFFYKADCRSMYDWLKEICKRRGDPALIEKTASLERFFLGHRERGEVMTY | 310 | 0.03 | 580 | – |
